One molecule from patent publication US20220306739A1 (Janssen / Centocor, published 2022) can be followed below.

Assay [1] deals with T1, TRBC2 TCR on HPB-ALL cells (human, UniProt A0A5B9 1-178).
T1 construct: whole, on cells; Only the constant domain is named; also called HPB-ALL cell line that endogenously expresses TRBC2 TCR
T1 TCR beta (looked up): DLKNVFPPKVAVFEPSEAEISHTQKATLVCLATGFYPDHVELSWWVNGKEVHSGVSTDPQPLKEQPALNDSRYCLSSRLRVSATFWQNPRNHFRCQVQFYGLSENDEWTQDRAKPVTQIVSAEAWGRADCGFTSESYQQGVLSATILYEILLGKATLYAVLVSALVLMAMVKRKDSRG
The assay is described as follows: flow cytometry cell binding to HPB-ALL cells (TRBC2), signal:background ratio.

Assay [2] concerns the target T2, TCR with TRBC1 on Jurkat cells (human, UniProt P01850 1-176).
T2 construct: whole, on cells; Only the constant domain is named; also called TRBC1 expressing Jurkat cell lines; transfected Jurkat cells
T2 TCR beta (looked up): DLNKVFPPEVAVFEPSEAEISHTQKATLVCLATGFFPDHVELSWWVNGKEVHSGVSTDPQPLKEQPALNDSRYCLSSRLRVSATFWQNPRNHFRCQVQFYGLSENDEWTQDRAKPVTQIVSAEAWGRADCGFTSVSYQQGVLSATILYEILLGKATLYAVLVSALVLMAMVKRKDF
The assay is described as follows: flow cytometry on TRBC1 expressing Jurkat cells. As for the experimental part:
Cells were washed with wash buffer (PBS+2% FBS) and the fluorescence of stained cells was measured on Novocyte flow cytometer. Cells were visualized on forward and sideward scatter and doublets were excluded. No secondary antibody control was used to establish background fluorescence and to gate on specific population. Background value was subtracted from main samples to get specific binding value.
(Flow cytometry measures light scatter and fluorescence of single cells or particles in a stream.)

B1: anti-TRBC1 antibody JOVI-1 mIgG2a (TRB1B1) (antibody, V domains shown)
VH: EVRLQQSGPDLIKPGASVKMSCKASGYTFTGYVMHWVKQRPGQGLEWIGFINPYNDDIQSNERFRGKATLTSDKSSTTAYMELSSLTSEDSAVYYCARGAGYNFDGAYRFFDFWGQGTTLTVSS
VL: DVVMTQSPLSLPVSLGDQASISCRSSQRLVHSNGNTYLHWYLQKPGQSPKLLIYRVSNRFPGVPDRFSGSGSGTDFTLKISRVEAEDLGIYFCSQSTHVPYTFGGGTKLEIK
notes: Mouse IgG2a monoclonal, commercially sourced; also called mJOVI-1; mouse anti-human TRBC1 clone JOVI-1 mAb
For orientation: EC50 means the concentration at which the effect is half-maximal. Lower therefore signals a more potent agent. B1: in assay [1], the binding result is reported as “no binding”. In addition, in assay [2], the EC50 is 1 to 2 nM.
